Usually kon stands for a measure of how fast the partners come together. As usually defined, the Kd is the free concentration of one partner at which half of the binding sites on the other are occupied at equilibrium, for simple one-to-one binding. A higher Kd goes with weaker binding. By koff is commonly meant the first-order rate constant of dissociation.

The text below walks through data of US20220119534A1 (DRAGONFLY THERAPEUTICS, published 2022).

Values joined by “and” are separate entries in the source; they are usually repeats but may differ in a detail not shown here. Identical values can stand only once.

Experiment [1] deals with T1, Human CLEC12A-His (recombinant, K244 WT) (human, UniProt Q5QGZ9 65-265).
T1 construct: Made in house (Dragonfly Tx); also called hCLEC12A; hCLEC12A-His; not shown: His tag
T1 sequence: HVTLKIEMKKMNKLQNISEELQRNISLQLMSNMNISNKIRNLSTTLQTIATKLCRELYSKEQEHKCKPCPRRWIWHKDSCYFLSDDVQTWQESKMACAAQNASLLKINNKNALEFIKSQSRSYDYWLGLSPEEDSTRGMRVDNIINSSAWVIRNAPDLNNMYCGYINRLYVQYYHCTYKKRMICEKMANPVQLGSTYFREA
Put plainly: SPR, two-state fit (ka1); control (fully purified protein study).

The target of experiment [2] is T2, De-sialylated human CLEC12A (human, UniProt Q5QGZ9 65-265, treated with neuraminidase (terminal sialic acids removed)).
T2 construct: Same recombinant antigen as m2 after neuraminidase; also called De-sialylated CLEC12A
T2 sequence: T1 sequence
Put plainly: SPR, two-state fit. (In general: SPR reads the build-up and loss of mass on a sensor chip optically.)
Description: (§1) Briefly, human Fc specific antibodies were covalently immobilized at a density ˜8000-10000 resonance units (RU) on carboxy methyl dextran matrix of a CM5 biosensor chip via amine-coupling chemistry to create an anti-hFc IgG chip. […] Association was monitored for 300 seconds and dissociation was monitored for 600 seconds. Surfaces were regenerated between cycles with three pulses of 10 mM glycine-HCl, pH 1.7 injected for 20 seconds at 100 μl/min. HBS-EP+ (1×) with 0.1 mg/ml BSA was used as running buffer throughout the experiment. Experiments were performed at physiological temperature of 37° C. To obtain kinetic rate constants and overall binding affinity, double-referenced data were fit to a two-state kinetic model using Biacore 8K Insight Evaluation software (Cytiva).

For experiment [3], the target named is T3, De-glycosylated human CLEC12A (human, UniProt Q5QGZ9 65-265, treated with PNGaseF (N-linked glycans removed)).
T3 construct: Same recombinant antigen as m2 after PNGaseF; also called De-glycosylated CLEC12A
T3 sequence: T1 sequence
The experiment is described as follows: SPR, two-state fit.
Description: as §1

The target of experiment [4] is T4, Cynomolgus CD64 (FcγRI) (cynomolgus monkey, UniProt A0A2K5U901 33-309, Biotinylated and captured on the CAP chip (p-1094); the biotin site is not stated.).
T4 construct: Bought recombinant receptor; also called cFcγRI; Cynomolgus FcγRI; not shown: The vendor's biotinylation and purification tag (ACRO FCA-C82E8)
T4 sequence (A0A2K5U901 entry or part of it limits assumed): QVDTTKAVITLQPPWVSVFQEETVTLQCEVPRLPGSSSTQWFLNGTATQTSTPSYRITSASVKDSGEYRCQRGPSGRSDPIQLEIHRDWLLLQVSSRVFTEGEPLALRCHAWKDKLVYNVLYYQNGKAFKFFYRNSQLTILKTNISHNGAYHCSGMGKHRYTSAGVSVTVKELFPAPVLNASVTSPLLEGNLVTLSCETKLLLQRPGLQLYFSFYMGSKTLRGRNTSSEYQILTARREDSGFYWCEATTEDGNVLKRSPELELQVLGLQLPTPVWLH
The experiment is described as follows: SPR 25C, biotinylated cyno CD64 captured on CAP chip.

B1: AB0089 TriNKET (bispecific antibody, human IgG1, kappa)
chain: QLQLQESGPGLVKPSETLSLTCTVSGFSLTNYGLHWIRQPPGKCLEWIGVIWVGGATDYNPSLKSRVTISVDTSKNQFSLKLSSVQAADTAVYYCAKGDYGDTLDYWGQGTLVTVSSGGGGSGGGGSGGGGSGGGGSDIQMTQSPSSLSASVGDRVTITCHASQNINFWLSWYQQKPGKAPKLLIYEASNLHTGVPSRFSGSGSGTDFTLTISSLQPEDFATYYCQQSHSYPLTFGCGTKLEIKGSDKTHTCPPCPAPELLGGPSVFLFPPKPKDTLMISRTPEVTCVVVDVSHEDPEVKFNWYVDGVEVHNAKTKPREEQYNSTYRVVSVLTVLHQDWLNGKEYKCKVSNKALPAPIEKTISKAKGQPREPRVYTLPPCRDELTKNQVSLTCLVKGFYPSDIAVEWESNGQPENNYKTTPPVLVSDGSFTLYSKLTVDKSRWQQGNVFSCSVMHEALHNHYTQKSLSLSPG
heavy: EVQLVESGGGLVKPGGSLRLSCAASGFTFSSYSMNWVRQAPGKGLEWVSSISSSSSYIYYADSVKGRFTISRDNAKNSLYLQMNSLRAEDTAVYYCARGAPIGAAAGWFDPWGQGTLVTVSSASTKGPSVFPLAPSSKSTSGGTAALGCLVKDYFPEPVTVSWNSGALTSGVHTFPAVLQSSGLYSLSSVVTVPSSSLGTQTYICNVNHKPSNTKVDKKVEPKSCDKTHTCPPCPAPELLGGPSVFLFPPKPKDTLMISRTPEVTCVVVDVSHEDPEVKFNWYVDGVEVHNAKTKPREEQYNSTYRVVSVLTVLHQDWLNGKEYKCKVSNKALPAPIEKTISKAKGQPREPQVCTLPPSRDELTENQVSLTCLVKGFYPSDIAVEWESNGQPENNYKTTPPVLDSDGSFFLYSWLTVDKSRWQQGNVFSCSVMHEALHNHYTQKSLSLSPG
light: DIQMTQSPSSVSASVGDRVTITCRASQGISSWLAWYQQKPGKAPKLLIYAASSLQSGVPSRFSGSGSGTDFTLTISSLQPEDFATYYCQQGVSFPRTFGGGTKVEIKRTVAAPSVFIFPPSDEQLKSGTASVVCLLNNFYPREAKVQWKVDNALQSGNSQESVTEQDSKDSTYSLSSTLTLSKADYEKHKVYACEVTHQGLSSPVTKSFNRGEC
notes: F3' format heterodimer of three chains; human IgG1 Fc with EW-RVT and Y349C/S354C mutations; also called AB0089 Lot AB0089-002; CLEC12A TriNKET AB0089
Take B1: the kon in experiment [1] was 1.03e+07 M⁻¹ s⁻¹; in experiment [4] it was 55000 M⁻¹ s⁻¹ and 54000 M⁻¹ s⁻¹. For the same molecule, the Kd is 0.35 nM in experiment [2]; 0.09 nM in experiment [3]; 1.5 nM and 1.8 nM and 1.2 nM in experiment [4]. For the same molecule, in experiment [4], the koff was 8.1e-05 s⁻¹ and 9.5e-05 s⁻¹ and 6.6e-05 s⁻¹.
